{"source": "patent US10301358B2", "about": "“Collagen imaging compositions” (Collagen Medical, LLC, priority 2015, dated 2019)", "key": {"collagen": {"target": "T1, collagen (Rattus norvegicus, UniProt P02454+P02466)", "T1 construct": "from tissue; host or cells: rat heart (normal and infarcted myocardium), in vivo", "T1 sequence (P02454 152-1207)": "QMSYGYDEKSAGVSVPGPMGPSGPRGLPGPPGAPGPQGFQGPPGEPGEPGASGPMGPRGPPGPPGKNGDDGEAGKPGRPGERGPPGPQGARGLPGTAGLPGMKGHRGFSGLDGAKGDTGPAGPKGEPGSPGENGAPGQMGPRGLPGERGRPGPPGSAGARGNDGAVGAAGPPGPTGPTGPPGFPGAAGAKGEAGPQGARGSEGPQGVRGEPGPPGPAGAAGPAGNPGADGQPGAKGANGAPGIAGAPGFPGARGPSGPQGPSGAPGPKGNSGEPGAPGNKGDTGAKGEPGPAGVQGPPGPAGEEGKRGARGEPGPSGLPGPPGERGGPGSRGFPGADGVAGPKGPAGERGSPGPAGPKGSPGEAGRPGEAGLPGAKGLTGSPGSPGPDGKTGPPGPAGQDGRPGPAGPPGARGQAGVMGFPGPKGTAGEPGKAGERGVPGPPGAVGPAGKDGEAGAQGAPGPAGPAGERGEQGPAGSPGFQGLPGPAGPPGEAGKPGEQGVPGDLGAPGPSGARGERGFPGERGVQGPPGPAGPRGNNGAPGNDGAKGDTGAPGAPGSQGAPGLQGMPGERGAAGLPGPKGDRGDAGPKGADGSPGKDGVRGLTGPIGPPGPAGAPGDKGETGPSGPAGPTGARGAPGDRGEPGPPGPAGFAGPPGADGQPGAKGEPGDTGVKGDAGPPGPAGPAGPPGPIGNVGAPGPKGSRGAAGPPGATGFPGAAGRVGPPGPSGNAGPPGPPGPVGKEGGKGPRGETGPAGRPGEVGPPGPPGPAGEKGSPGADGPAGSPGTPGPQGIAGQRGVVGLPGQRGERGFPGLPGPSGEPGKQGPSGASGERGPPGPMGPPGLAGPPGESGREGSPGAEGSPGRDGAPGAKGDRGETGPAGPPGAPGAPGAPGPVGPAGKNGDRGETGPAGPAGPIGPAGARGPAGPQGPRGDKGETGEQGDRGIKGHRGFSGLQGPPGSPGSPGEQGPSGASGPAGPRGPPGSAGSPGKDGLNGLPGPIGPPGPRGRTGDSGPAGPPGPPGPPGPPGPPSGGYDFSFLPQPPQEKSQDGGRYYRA", "T1 sequence (P02466 86-1125)": "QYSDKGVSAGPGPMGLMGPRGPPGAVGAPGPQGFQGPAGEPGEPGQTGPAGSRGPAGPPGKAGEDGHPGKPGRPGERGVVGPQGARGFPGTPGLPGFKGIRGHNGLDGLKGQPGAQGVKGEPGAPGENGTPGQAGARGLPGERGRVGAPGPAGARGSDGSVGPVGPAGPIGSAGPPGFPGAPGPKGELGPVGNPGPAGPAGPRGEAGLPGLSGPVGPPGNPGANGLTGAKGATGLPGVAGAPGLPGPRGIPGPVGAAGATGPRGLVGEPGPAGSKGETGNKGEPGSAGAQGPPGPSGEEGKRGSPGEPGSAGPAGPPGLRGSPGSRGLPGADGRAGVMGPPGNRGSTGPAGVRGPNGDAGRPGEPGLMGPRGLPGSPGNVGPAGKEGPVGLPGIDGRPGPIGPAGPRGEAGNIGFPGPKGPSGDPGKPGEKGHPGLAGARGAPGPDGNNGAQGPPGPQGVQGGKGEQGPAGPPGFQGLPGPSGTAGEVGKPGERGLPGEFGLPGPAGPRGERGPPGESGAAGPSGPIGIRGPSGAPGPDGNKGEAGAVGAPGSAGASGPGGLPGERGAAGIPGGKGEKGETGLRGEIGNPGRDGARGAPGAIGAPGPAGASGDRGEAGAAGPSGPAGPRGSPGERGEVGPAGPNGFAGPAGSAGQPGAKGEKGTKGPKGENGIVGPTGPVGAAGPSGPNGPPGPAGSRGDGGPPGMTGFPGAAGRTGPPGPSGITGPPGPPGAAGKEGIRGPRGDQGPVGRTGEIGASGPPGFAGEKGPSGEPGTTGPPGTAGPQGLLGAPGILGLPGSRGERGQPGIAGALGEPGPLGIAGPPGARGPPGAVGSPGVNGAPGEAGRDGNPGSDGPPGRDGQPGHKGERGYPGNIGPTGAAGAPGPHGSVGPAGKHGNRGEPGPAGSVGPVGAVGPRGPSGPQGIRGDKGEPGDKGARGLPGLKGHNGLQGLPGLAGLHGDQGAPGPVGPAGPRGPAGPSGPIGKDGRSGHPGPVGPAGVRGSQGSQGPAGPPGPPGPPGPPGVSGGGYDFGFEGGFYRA", "assay": "Uptake into fibrotic myocardial tissue, rat model of healed myocardial infarction", "format": "in vivo, Sprague Dawley rats", "details": "~1 umol/kg, 3 weeks following infarction, sacrifice 60 minutes post-injection, tissue manganese", "experimental": "Tissue samples from normal myocardium and infarcted myocardium are analyzed for manganese and hydroxyproline (collagen) content."}, "[1]": {"assay": "Uptake into fibrotic liver tissue, bile duct ligated (BDL) rats", "format": "in vivo, Sprague-Dawley rats", "details": "~7.5 μmol/kg, sacrifice after 90 min, BDL vs sham", "experimental": "Bile duct ligated (BDL) rats are selected to assess the uptake of the complexes in fibrotic liver tissue as compared to sham operated animals. In this model, the common bile duct is surgically tied off and the resultant cholestasis results in fibrosis around the bile ducts. Laparotomy is performed in Sprague-Dawley rats with double ligation of the common bile duct with a section between the two ligatures (2-3% isoflurane anesthesia). […] Fibrosis is evident 15 days after ligation and increases with time up to 30 days after ligation, providing defined endpoints for imaging of moderate and severe fibrosis.\nStudies are conducted by injecting Compound ID. No. 1 at a dose ˜7.5 μmol/kg. After 90 min, the animals are sacrificed and the 4 liver lobes and abdominal muscle are removed and the manganese concentration quantified by ICP-MS and collagen content quantified using hydroxyproline concentration."}, "Pharmacokinetics (Rat)": {"assay": "Pharmacokinetics (Rat)", "format": "in vivo, Sprague Dawley rats", "details": "1.3 umol/kg bolus IV, plasma sampled 2-90 minutes post-injection, ICP-MS", "experimental": "Compound ID No. 1 is formulated at pH 7.5 (TRIS buffer) and administered to Sprague Dawley rats (n=2) at dose of 1.3 umol/kg using a bolus IV injection. Plasma is sampled at 2, 5, 15, 30, and 90 minutes post-injection and analyzed for manganese content using ICP-MS."}, "[2]": {"assay": "Myocardial perfusion imaging, canine LAD occlusion/reperfusion model", "format": "in vivo", "experimental": "To mimic severe ischemia, a canine model is used in which an inflatable variable vascular occluder is placed around the left anterior descending coronary artery (LAD) to allow occlusion and reperfusion. Imaging is performed on a 3T clinical scanner 4 days after implantation of the occluder. The conventional saturation recovery pulse sequence for stress perfusion imaging is compared with a segmented inversion method. The purpose of the segmented inversion method is to leverage the steady-state properties of Compound ID No. 1. This segmented inversion recovery pulse sequence provides greater T1 weighting, higher spatial resolution, and greater myocardial tissue contrast. Additionally, since imaging is delayed, the entire heart can be imaged. After baseline MRI scanning, the balloon is inflated. […]\nTo assess relative perfusion, labeled microspheres are administered at 3 timepoints in the study. […] At autopsy under ultraviolet light, the hypo-perfused myocardium is differentiated from normal myocardium due to the lack of fluorescence in the hypo-perfused tissue. Based on the fluorescence, a sample of the ischemic territory and a sample of the remote myocardium are taken for ex vivo analysis. These tissue samples are weighed, digested in nitric acid, and analyzed for the elements La, Au, Lu (the three microsphere injections) and manganese (Compound ID No. 1) using ICP-MS. […]"}}, "note": "“Also recorded” adds a separate entry of the source. Bridge positions count the residues as written; N and C are the ends. Ends that are not written are not given here.", "data": [{"substance": "Compound ID No. 1: MnCDTAGA conjugate of cyclic collagen binding peptide SEQ ID No. 1 (G-K-W-H-C-T-T-K-F-P-H-H-Y-C-L-Y-Bip), amidated C-terminus; FIG. 1 (GKWHCTTKFPHHYCLY; MnCDTAGA conjugate; cyclic disulfide; C-terminal amide)", "values": [{"measurement": "uptake in normal vs. scarred myocardium", "setting": "collagen", "result": "greater binding in fibrotic cardiac tissue as compared with normal myocardial tissue"}, {"measurement": "uptake into fibrotic liver tissue (manganese vs hydroxyproline)", "setting": "[1]", "result": "consistent with uptake of Compound ID No. 1 into fibrotic-rich liver tissue"}, {"measurement": "pharmacokinetic profile (plasma manganese content)", "setting": "Pharmacokinetics (Rat)", "result": "rapid initial blood clearance"}, {"measurement": "MR visualization of myocardial perfusion defect", "setting": "[2]; 7.5 μmol/kg i.v. bolus one minute after coronary artery occlusion, 3T scanner, listed as 1", "result": "readily visualized; also recorded: positive image contrast in the normally perfused myocardium"}, {"measurement": "Mn concentration in ischemic vs normal myocardium ex vivo", "setting": "[2]; 7.5 μmol/kg i.v., sacrifice ca. 120 minutes post injection, ICP-MS", "result": "preferential deposition in normal vs ischemic cardiac tissue"}]}, {"substance": "Compound ID No. 2: MnCDTAGA linked to terminal nitrogen and lysine epsilon amino groups of peptide SEQ ID No. 2, C-terminus —NH2 amide; FIG. 2 (MnCDTAGA-K(MnCDTAGA)WHCTTK(MnCDTAGA)FPHHYCLY; disulfide 4-13 (inferred); not fully specified (C-terminus); printed as K-W-H-C-T-T-K-F-P-H-H-Y-C-L-Y-Bip)", "values": [{"measurement": "uptake in normal vs. scarred myocardium", "setting": "collagen", "result": "greater binding in fibrotic cardiac tissue as compared with normal myocardial tissue"}]}, {"substance": "Compound ID No. 4: MnCDTAGA linked to terminal nitrogen or lysine epsilon amino groups of peptide SEQ ID No. 4, C-terminus —NH2 amide; FIG. 4 (KWHCYTKFPHHYCVY; disulfide 4-13 (inferred); not fully specified (C-terminus); printed as K-W-H-C-Y-T-K-F-P-H-H-Y-C-V-Y-Bip; also: MnCDTAGA on N-terminal amine or lysine ε-amino group)", "values": [{"measurement": "uptake in normal vs. scarred myocardium", "setting": "collagen", "result": "greater binding in fibrotic cardiac tissue as compared with normal myocardial tissue"}]}]}
